Test results reported in patent US20200399344A1 (SHATTUCK LABS, published 2020).
Several values for one entry are separate records, joined by “and”; a condition that tells them apart may be missing. Equal entries are not always repeated.

T1: recombinant human 2B4-Fc fusion protein (rh2B4-Fc) (human, UniProt Q9BZW8-2 22-221, limits assumed)
T1 construct: not shown: Fc
T1 sequence (looked up): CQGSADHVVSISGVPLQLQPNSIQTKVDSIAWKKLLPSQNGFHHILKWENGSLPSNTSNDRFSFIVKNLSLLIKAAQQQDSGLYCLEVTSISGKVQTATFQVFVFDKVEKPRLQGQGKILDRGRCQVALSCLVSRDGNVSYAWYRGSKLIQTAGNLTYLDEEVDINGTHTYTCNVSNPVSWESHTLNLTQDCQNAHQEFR

T2: recombinant human CD2-Fc fusion protein (rhCD2-Fc) (human, UniProt P06729 25-209)
T2 construct: not shown: Fc
T2 sequence (looked up): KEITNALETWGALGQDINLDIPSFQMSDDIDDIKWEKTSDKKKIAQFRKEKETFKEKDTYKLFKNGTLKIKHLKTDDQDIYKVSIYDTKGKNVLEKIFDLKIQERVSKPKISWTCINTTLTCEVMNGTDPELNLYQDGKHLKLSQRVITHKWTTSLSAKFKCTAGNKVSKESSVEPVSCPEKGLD

T3: recombinant mCD47 (mCD47-His) protein (mouse, UniProt Q61735 19-140, limits assumed)
T3 construct: not shown: His tag
T3 sequence (looked up): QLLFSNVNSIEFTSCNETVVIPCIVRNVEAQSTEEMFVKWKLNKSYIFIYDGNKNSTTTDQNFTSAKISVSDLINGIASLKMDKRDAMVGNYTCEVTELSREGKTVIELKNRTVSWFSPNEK

B1: human CD86-Fc-NKG2A chimeric protein (Fc fusion)
chain: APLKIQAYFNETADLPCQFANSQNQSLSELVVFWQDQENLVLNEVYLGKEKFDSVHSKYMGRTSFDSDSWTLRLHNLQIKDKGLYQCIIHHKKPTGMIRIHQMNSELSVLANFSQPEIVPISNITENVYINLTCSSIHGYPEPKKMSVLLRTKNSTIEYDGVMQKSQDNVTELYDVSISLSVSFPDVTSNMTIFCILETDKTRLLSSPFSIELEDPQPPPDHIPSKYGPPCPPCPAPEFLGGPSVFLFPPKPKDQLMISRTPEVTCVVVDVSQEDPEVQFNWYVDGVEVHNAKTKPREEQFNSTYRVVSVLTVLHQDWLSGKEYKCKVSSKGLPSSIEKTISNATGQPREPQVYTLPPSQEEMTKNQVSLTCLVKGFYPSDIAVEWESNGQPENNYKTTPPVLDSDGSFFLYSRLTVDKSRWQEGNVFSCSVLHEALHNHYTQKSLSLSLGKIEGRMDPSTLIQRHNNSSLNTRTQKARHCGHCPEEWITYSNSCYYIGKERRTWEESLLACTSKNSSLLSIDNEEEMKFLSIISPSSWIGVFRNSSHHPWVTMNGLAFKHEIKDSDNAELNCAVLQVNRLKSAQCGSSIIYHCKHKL
notes: also called hCD86-Fc-NKG2A
B2: mouse CD86-Fc-NKG2A chimeric protein (Fc fusion)
chain: VSVETQAYFNGTAYLPCPFTKAQNISLSELVVFWQDQQKLVLYEHYLGTEKLDSVNAKYLGRTSFDRNNWTLRLHNVQIKDMGSYDCFIQKKPPTGSIILQQTLTELSVIANFSEPEIKLAQNVTGNSGINLTCTSKQGHPKPKKMYFLITNSTNEYGDNMQISQDNVTELFSISNSLSLSFPDGVWHMTVVCVLETESMKISSKPLNFTQEFPSPQTYWKVPRDCGCKPCICTVPEVSSVFIFPPKPKDVLTITLTPKVTCVVVDISKDDPEVQFSWFVDDVEVHTAQTQPREEQFNSTFRSVSELPIMHQDWLNGKEFKCRVNSAAFPAPIEKTISKTKGRPKAPQVYTIPPPKEQMAKDKVSLTCMITDFFPEDITVEWQWNGQPAENYKNTQPIMDTDGSYFVYSKLNVQKSNWEAGNTFTCSVLHEGLHNHHTEKSLSHSPGIIEGRMDTPYTEAKAQINSSMTRTHRDINYTLSSAQPCPHCPKEWISYSHNCYFIGMERKSWNDSLVSCISKNCSLLYIDSEEEQDFLQSLSLISWTGILRKGRGQPWVWKEDSIFKPKIAEILHDECNCAMMSASGLTADNCTTLHPYLCKCKFPI
notes: Batch 1 and Batch 2 were tested; also called mCD86-Fc-NKG2A

Experiments:
[1] = molecular target: T4, recombinant human CD28-Fc (rhCD28-Fc) protein (human, UniProt P10747 19-152); test: dual ELISA; coat rhCD28-Fc, hCD86-Fc-NKG2a titrated, detection HLA-E-His, Anti-His-6x-HRP; the signal needs both bindings
T4 construct: not shown: Fc
T4 sequence (P10747 19-152 limits assumed): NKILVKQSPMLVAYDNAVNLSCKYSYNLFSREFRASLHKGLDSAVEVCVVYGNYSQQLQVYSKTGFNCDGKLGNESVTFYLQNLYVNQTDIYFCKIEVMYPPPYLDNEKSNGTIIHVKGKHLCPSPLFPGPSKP
Experimental: To understand whether the hCD86-Fc-NKG2A chimeric protein can binds simultaneously to both hCD28 and HLA-E, the following ELISA experiment was carried out. Briefly, and recombinant hCD28 (rhCD28-Fc) protein was coated on plates. Increasing amounts of the hCD86-Fc-NKG2A chimeric protein was added to the plates for capture by the rhCD28-Fc protein. Further, recombinant HLA-E (HLA-E-His) protein was added to the plate for capture by hCD86-Fc-NKG2A chimeric protein. The binding of the HLA-E-His protein was detected using an anti-His 6× HRP antibody.

[2] = molecular target: T1, recombinant human 2B4-Fc fusion protein …; test: dual ELISA; coat rh2B4-Fc, hCD86-Fc-NKG2A titrated, detection HLA-E-His, Anti 6x-His-HRP
Experimental: (§1) (i) recombinant human 2B4-Fc fusion protein (rh2B4-Fc) was coated on plates. Increasing amounts of the hCD48-Fc-NKG2A or hCD86-Fc-NKG2A chimeric proteins were added and detected using HLA-E-His. The hCD86-Fc-NKG2A chimeric protein was used as a negative control (Negative control #1). […] (ii) recombinant human CD2-Fc fusion protein (rhCD2-Fc) was coated on plates. Increasing amounts of the hCD58-Fc-NKG2A or hCD86-Fc-NKG2A chimeric proteins were added and detected using HLA-E-His. The hCD86-Fc-NKG2A chimeric protein was used as a negative control (Negative control #2).
(§2) To understand whether the hCD48-Fc-NKG2A chimeric protein can bind simultaneously to both 2B4 and HLA-E, the following ELISA experiment was carried out. Briefly, and recombinant 2B4 (rh2B4-Fc) protein was coated on plates. Increasing amounts of the hCD48-Fc-NKG2A chimeric protein was added to the plates for capture by the recombinant human 2B4-Fc (rh2B4-Fc) protein. Further, recombinant HLA-E (HLA-E-His) protein was added to the plate for capture by hCD48-Fc-NKG2A chimeric proteins. The binding of the HLA-E-His protein was detected using an anti-His 6× HRP antibody.

[3] = molecular target: T5, recombinant human CD28-His (rhCD28-His) (human, UniProt P10747 19-152); test: ELISA: coat rhCD28-His (Acro), detection Anti-hFc-HRP
T5 construct: also called Human CD28-His protein; recombinant CD28 protein; not shown: His tag
T5 sequence (P10747 19-152 limits assumed): as above
Experimental: To understand whether the CD80 and CD86 parts of the hCD80-Fc-NKG2A and hCD86-Fc-NKG2A chimeric protein can bind CD28, ELISA-based assays were performed. Briefly, recombinant CD28 protein was coated on plates and increasing amounts of the hCD80-Fc-NKG2A, hCD86-Fc-NKG2A, and mCD48-Fc-NKG2A chimeric proteins, and recombinant human CD86-Fc (rhCD86-Fc) protein was added to the plates for capture by the plate-bound recombinant CD28 protein. The mCD48-Fc-NKG2A chimeric protein, and recombinant human CDrhCD86-Fc protein was used as negative and positive controls, respectively. The chimeric proteins bound to the recombinant CD28 protein was detected using an anti-human Fc HRP.

[4] = molecular target: T6, hCD28 expressed on CHO-K1/hCD28 cells (human, UniProt P10747 19-220); test: flow cytometry on CHO-K1/hCD28 cells (hCD28-C1), APC-A, dose series (doses not given)
T6 construct: whole, on cells; also called CHO-K1/CD28
T6 sequence (P10747 19-220): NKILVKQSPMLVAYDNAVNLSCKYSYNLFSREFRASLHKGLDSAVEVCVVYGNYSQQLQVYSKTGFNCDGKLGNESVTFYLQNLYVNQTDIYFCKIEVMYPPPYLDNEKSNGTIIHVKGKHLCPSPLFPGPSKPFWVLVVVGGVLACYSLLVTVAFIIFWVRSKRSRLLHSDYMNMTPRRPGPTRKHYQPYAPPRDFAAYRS
Experimental: To determine whether the hCD86-Fc-NKG2A chimeric protein can specifically bind the CHO-K1/hCD28 cells, a flow-cytometry-based assay was carried out. […] The dose dependent shifts in the flow cytometry profiles illustrate a dose-dependent binding of the hCD86-Fc-NKG2A chimeric protein to hCD28 expressed by the CHO-K1/hCD28 cells. A quantitation of binding confirmed a dose-dependent binding (FIG. 65).

[5] = molecular target: T2, recombinant human CD2-Fc fusion protein …; test: dual ELISA; coat rhCD2-Fc, hCD86-Fc-NKG2A titrated, detection HLA-E-His, Anti 6x-His-HRP
Experimental: as §1
as §2, with “hCD58-Fc-NKG2A” for “hCD48-Fc-NKG2A”, “CD2” for “2B4”, “CD2 (rhCD2-Fc)” for “2B4 (rh2B4-Fc)”, “CD2-Fc (rhCD2-Fc)” for “2B4-Fc (rh2B4-Fc)”

[6] = molecular target: T7, anti-human IgG antibody (plate-bound); test: ELISA (single sided Fc): coat Anti-Human IgG (H+L) Jax# 109-005-088, detection HRP Goat anti-human FCgamma
T7 construct: also called anti-human Fc antibody
Experimental: Anti-human IgG was coated on plates and increasing amounts of the indicated chimeric proteins were added to the plates. hIgG was used as a positive control, and mCD80-Fc-NKG2A was used as a negative control. The binding was detected using an anti-human Fcgamma HRP.
To understand whether the Fc linkers from the native chimeric proteins can be accessed by anti-human antibodies, ELISA-based assays were performed. For these assays, an anti-human IgG antibody was coated on plates and increasing amounts of the hCD86-Fc-NKG2A and hTGFBR2-Fc-NKG2A, mCD80-Fc-NKG2a chimeric proteins, and a human IgG antibody were added to the plates for capture by the plate-bound anti-human antibody. The human IgG antibody was used as a positive control and to generate a standard curve. The mCD80-Fc-NKG2a chimeric protein was included as a negative control as containing a non-human Fc domain. The protein bound to the anti-human IgG antibody was detected using an anti-human Fcgamma HRP.

goat anti-mCD48 antibody = molecular target: T8, goat anti-mCD48 antibody; test: Dual binding ELISA: coat mHLA-E (Novus) as printed, detect Anti-mCD48 (R&D), HRP Anti-Goat HRP; flat curve
T8 construct: also called anti-CD48; Anti-CD48

[7] = molecular target: T9, PD-L1, plate-bound (Example 8) (Homo sapiens (Human), UniProt Q9NZQ7 19-238); test: Dual ELISA (capturing with PDL1): coat hPDL1-Fc (R&D), detect hHLA-E (Novus), HRP Anti-6X His; curve low, about 0.45 at the highest concentration
T9 construct: not shown: The Fc carrier of the vendor's hPD-L1-Fc (R&D) and any linker
T9 sequence (Q9NZQ7 19-238 limits assumed): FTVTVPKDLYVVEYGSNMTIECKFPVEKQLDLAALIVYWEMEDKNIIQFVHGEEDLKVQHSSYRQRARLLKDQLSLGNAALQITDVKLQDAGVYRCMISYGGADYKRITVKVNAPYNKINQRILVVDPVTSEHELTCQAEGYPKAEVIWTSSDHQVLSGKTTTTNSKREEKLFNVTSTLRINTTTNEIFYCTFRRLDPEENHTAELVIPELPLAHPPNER

[8] = molecular target: T10, HLA class I histocompatibility antigen, alpha chain E (HLA-E), plate-bound recombinant protein (human, UniProt P13747 22-305, limits assumed); test: ELISA (single-sided): coat hHLA-E (Novus), detect Anti-mFc-HRP (Jax)
T10 construct: no tag named there; also called recombinant HLA-E protein
T10 sequence (P13747 22-305 limits assumed): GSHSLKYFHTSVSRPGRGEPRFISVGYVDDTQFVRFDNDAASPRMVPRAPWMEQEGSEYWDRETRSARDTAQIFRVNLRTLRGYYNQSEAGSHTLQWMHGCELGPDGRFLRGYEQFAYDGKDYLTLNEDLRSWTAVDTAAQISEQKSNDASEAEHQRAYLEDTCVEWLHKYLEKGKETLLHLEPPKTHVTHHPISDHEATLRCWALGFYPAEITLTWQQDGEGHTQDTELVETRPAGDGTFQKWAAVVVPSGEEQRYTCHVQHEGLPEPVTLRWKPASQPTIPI

mCTLA-4, plate-bound [9] = molecular target: T11, mCTLA-4, plate-bound (mouse, UniProt P09793 36-162, limits assumed); test: ELISA (single-sided): coat mCTLA-4 (R&D), detect Anti-mFc-HRP (Jax)
mCTLA-4, plate-bound [10] = molecular target: T11, mCTLA-4, plate-bound; test: ELISA (single-sided): coat mCTLA-4 (R&D), detect Anti-mFc-HRP (Jax); curve near the baseline, about 0.25 only at the highest concentration
[11] = molecular target: T3, recombinant mCD47 (mCD47-His) protein; test: dual/PK ELISA; coat αNKG2a (1:10k), mCD86-fc-NKG2a titrated, detection mCD47-His (5ug/ml), His-HRP
Experimental: Increasing amounts of the mSIRPα-Fc-NKG2A chimeric protein was added and detected using mCD47-His. The CD86-Fc-NKG2A chimeric protein was used as a negative control.
To understand whether the mSIRPα-Fc-NKG2A chimeric protein can binds simultaneously to both anti-NKG2a and CD47, the following ELISA experiment was carried out. Briefly, and anti-NKG2a antibody was coated on plates. Increasing amounts of the mSIRPα-Fc-NKG2A and mCD48-Fc-NKG2A chimeric proteins were added to the plates for capture by the anti-NKG2a antibody. Further, recombinant mCD47 (mCD47-His) protein was added to the plate for capture by mSIRPα-Fc-NKG2A chimeric protein. The binding of the mCD47-His protein was detected using an anti-His HRP antibody.

| Binder | binding result [1] | binding result [2] | binding result [3] | binding result [4] | binding result [5] | EC50 (read off the curve) [6] [µg/mL] | EC50 (goat anti-mCD48 antibody) [µM] | EC50 [7] [µM] | EC50 [8] | EC50 (mCTLA-4, plate-bound [9]) [µM] | EC50 (mCTLA-4, plate-bound [10]) [µM] | binding result [11] |
| --- | --- | --- | --- | --- | --- | --- | --- | --- | --- | --- | --- | --- |
| B1 | binds | no binding (tested: about log 2.7 ug/ml (roughly 500 ug/ml)) | binds | binds | no binding (tested: about log 2.7 ug/ml (roughly 500 ug/ml)) | ~1 |  |  |  |  |  |  |
| B2 |  |  |  |  |  |  | ~0.00555 | 1.65 | 0.0661 µM and 0.0832 µM | 0.000658 | ~4050 | no binding (tested: about log 1.8 ug/ml (roughly 60 ug/ml)) |
